From patent US20040120946A1
Each block holds one binder with its values, some of them ahead of it. Where no end group is shown, it is not given here.

Assays:
[1] = biological target: antibody against β1-adrenoceptor in DCM patient serum A (human); test: batch adsorption: 50 uL adsorbent with 300 uL DCM patient serum A, 37 C, 2 h; antibody left in supernatant read by ELISA on plate-coated β1AR2nd peptide
[2] = biological target: antibody against β1-adrenoceptor in DCM patient serum B (human); test: batch adsorption with DCM patient serum B, 37 C, 2 h; antibody left in supernatant read by ELISA on plate-coated β1AR2nd peptide
[3] = biological target: antibody against M2 muscarinic receptor in DCM patient serum C (human); test: batch adsorption with DCM patient serum C, 37 C, 2 h; antibody left in supernatant read by ELISA on plate-coated M2R peptide
[4] = biological target: antibody against β1-adrenoceptor in DCM patient serum D (human); test: batch adsorption with DCM patient serum D, 37 C, 2 h; antibody left in supernatant read by ELISA on plate-coated β1AR2nd peptide

B2: peptide (SEQ ID NO:9) immobilized on epoxy-activated Kac (Kac-SEQ ID NO:9) (peptide)
peptide: HWWRAESDEARRCYNDPKCCDFVTNRGAC
modifications: cysteine pairing not given here; also: immobilized on epoxy-activated cellulose gel Kac
- Adsorptive capacity [2]: 70%

B3: peptide (SEQ ID NO:4) immobilized on epoxy-activated GCL2000m (GCL2000m-SEQ ID NO:4) (peptide)
peptide: RAESDEARRCYNDPKCCDFVTNR
- Adsorptive capacity [1]: 35%

Next, values leading:

- Adsorptive capacity [1]: 15%
B1: second loop of β1-adrenoceptor peptide (β1AR2nd) immobilized on CNBr-activated Sepharose 4B (Sepharose 4B-β1AR2nd) (peptide)
peptide: HWWRAESDEARRCYNDPKCCDFVTNR
modifications: cysteine pairing not given here; also: immobilized on CNBr-activated Sepharose 4B

- Adsorptive capacity [3]: 60%
B4: peptide (SEQ ID NO:10) immobilized on Eupergit C 250 L (Eu-SEQ ID NO:10) (peptide)
peptide: VRTVEDGECYIQFFSNAAVTFGTAIPAKK
modifications: also: immobilized on Eupergit C 250 L

- Adsorptive capacity [4]: 80%
B5: peptides (SEQ ID NOS:11,12) co-immobilized on epoxy-activated Kac (Kac-SEQ ID NOS:11,12) (protein)
peptide 1: HWWRAESDEARRCYNDPKCCDFVTNRAC
peptide 2: VRTVEDGECYIQFFSNAAVTFGTAIC
modifications: cysteine pairing not given here; also: two separate peptides co-immobilized on epoxy-activated Kac
